Experiments:
Test in all cases: SPR, antibody captured, C2 as analyte;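 also: biacore SPR at 37 °C, anti-C2 mAbs captured via goat anti-human IgG on CM5 chips, double-referenced sensorgrams fit to a 1:1 kinetic or steady-state model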
human C2 K487A = target: T1, human C2 K487A (human, UniProt P06681 21-752)
T1 sequence: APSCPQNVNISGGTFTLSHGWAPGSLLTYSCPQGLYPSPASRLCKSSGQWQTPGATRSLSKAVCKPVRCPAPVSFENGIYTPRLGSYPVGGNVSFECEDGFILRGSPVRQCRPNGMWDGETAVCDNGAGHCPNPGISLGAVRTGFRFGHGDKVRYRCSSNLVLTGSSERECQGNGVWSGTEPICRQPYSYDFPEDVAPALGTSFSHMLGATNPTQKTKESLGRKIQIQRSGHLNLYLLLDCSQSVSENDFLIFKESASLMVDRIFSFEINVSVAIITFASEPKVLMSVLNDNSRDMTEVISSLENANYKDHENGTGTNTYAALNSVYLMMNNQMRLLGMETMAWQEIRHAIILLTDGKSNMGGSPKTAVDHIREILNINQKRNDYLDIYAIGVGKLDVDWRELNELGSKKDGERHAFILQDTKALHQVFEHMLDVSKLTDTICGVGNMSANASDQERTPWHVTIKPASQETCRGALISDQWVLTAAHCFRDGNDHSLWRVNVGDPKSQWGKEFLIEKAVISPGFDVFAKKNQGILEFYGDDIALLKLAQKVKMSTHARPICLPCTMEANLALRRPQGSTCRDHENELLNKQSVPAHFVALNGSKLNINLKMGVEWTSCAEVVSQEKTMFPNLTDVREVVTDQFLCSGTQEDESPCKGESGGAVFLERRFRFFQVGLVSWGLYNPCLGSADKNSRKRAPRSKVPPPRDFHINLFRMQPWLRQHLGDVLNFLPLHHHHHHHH

human C2 D419A = target: T2, human C2 D419A (human, UniProt P06681 21-752)
T2 sequence: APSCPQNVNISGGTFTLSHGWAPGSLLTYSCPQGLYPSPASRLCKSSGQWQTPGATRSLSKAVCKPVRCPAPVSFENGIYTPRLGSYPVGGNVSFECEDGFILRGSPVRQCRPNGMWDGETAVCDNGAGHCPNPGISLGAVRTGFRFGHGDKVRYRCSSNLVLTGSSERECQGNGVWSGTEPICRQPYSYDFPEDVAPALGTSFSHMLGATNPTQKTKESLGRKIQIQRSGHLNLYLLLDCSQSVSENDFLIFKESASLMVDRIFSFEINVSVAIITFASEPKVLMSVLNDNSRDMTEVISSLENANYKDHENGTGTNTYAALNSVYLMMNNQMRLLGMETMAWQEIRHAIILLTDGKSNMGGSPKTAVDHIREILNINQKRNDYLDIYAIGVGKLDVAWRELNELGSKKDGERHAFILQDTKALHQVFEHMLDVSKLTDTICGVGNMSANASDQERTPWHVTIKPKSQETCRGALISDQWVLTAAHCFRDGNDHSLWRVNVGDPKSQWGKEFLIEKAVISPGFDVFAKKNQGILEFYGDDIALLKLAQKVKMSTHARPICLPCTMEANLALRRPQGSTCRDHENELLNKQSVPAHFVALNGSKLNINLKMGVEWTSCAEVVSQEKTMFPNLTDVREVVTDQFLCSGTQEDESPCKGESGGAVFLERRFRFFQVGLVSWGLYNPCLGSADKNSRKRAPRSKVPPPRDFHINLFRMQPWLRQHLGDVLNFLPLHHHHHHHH

human C2 D404A = target: T3, human C2 D404A (human, UniProt P06681 21-752)
T3 sequence: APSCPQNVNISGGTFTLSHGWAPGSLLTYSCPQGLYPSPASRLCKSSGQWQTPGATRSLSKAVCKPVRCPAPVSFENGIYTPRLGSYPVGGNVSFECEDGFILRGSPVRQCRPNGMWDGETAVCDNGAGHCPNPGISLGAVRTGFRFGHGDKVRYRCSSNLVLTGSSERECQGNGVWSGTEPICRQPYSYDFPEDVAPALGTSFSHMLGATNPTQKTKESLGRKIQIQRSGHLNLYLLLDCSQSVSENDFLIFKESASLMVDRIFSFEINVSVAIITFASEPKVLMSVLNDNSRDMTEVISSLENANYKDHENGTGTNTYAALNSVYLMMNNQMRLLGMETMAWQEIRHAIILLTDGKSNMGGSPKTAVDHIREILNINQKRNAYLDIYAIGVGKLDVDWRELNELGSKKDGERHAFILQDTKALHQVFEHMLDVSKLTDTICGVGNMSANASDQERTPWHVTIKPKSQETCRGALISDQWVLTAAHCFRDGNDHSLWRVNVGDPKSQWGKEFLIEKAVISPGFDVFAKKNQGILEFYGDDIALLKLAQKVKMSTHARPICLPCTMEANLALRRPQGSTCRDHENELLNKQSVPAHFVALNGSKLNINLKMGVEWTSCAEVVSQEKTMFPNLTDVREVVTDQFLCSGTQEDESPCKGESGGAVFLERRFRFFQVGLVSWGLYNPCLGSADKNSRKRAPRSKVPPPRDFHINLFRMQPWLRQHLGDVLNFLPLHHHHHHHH

human C2 K676S = target: T4, human C2 K676S (human, UniProt P06681 21-752)
T4 sequence: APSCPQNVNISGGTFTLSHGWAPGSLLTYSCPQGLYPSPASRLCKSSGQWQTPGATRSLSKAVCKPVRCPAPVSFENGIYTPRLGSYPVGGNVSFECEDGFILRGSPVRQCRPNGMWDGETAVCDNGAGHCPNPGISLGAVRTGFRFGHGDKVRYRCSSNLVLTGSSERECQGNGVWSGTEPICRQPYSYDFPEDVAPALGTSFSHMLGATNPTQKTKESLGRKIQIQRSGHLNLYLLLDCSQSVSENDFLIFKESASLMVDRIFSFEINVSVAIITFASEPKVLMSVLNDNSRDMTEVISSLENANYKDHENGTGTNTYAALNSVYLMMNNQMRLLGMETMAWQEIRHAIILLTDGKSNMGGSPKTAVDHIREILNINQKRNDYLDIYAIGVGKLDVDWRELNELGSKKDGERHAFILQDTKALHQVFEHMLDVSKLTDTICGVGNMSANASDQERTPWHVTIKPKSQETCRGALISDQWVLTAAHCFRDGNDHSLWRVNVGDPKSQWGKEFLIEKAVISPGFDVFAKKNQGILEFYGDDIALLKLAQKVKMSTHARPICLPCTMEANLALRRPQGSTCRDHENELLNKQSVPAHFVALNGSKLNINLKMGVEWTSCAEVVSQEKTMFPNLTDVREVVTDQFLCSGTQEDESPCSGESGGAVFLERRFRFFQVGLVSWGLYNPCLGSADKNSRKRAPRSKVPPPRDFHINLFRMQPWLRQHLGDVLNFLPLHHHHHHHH

B1: RF16-226 (antibody, human IgG4 S228P, lambda)
heavy: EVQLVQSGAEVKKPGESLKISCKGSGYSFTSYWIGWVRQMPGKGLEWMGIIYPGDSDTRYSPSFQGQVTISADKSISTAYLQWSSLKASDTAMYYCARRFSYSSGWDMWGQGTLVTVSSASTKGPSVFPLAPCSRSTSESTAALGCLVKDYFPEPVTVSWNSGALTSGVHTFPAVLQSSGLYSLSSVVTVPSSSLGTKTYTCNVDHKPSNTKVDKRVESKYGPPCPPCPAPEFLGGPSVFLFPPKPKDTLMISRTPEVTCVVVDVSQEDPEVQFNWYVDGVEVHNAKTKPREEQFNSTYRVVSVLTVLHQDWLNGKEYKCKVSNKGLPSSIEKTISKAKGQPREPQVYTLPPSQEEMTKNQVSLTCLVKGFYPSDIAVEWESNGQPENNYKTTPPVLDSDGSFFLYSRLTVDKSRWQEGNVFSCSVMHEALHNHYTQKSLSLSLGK
light: SYELTQPPSVSVSPGQTARITCSGDALTSKYVAWYQQKSGLAPLLVIYEDTRRPSGIPAKFSGSSSGSVATLTISGAHGDDEADYYCYSTDASGHQRVFGGGTKLTVLSQPKAAPSVTLFPPSSEELQANKATLVCLISDFYPGAVTVAWKADGSPVKAGVETTKPSKQSNNKYAASSYLSLTPEQWKSHRSYSCQVTHEGSTVEKTVAPTECS
notes: pH-dependent anti-C2 antibody from a phage display library; also called WT
B1 showed a Kd (human C2 K487A) of 93 nM, a Kd (human C2 D419A) of 17.6 nM and a Kd (human C2 D404A) of 12.8 nM. The Kd (human C2 K676S) was 16.3 nM.

Source: patent publication US20220332804A1 (CSL INNOVATION, published 2022)
